Data on 72 sequences can be found in the supplement of paper PMC10567573.

The nature of this data set: protein stability index of a GFP-peptide fusion (GPS, HEK-293T) (PSI 1-6); higher = more stable.
The mark [1] stands for this setting: treatment: DMSO, c terminus: a fixed tail appended.
Where [2] appears, read: treatment: MLN4924 1 uM, 8 h, c terminus: a fixed tail appended.
Setting [3] is: treatment: DMSO, c terminus: native.
[4] abbreviates: treatment: MLN4924 1 uM, 8 h, c terminus: native.

± gives the standard deviation.
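Also: 24-mer peptide tiles fused after GFP, lentivirally expressed, FACS-sorted into six equal bins by GFP/DsRed ratio, decoded by Illumina sequencing, PSI is the read-weighted mean bin number.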

With FQTLQAIVSHFQKLFDVPSLNGVY [CEP70], the protein stability index turned out to be 2.36 ± 0.36 under setting [1] and 2.36 ± 0.4 under setting [2].

As for QTLLGTAKMLLHEGQHPAQLRSDV [PYCR3], the protein stability index came out at 3.28 ± 0.094 under setting [1] and 3.16 ± 0.39 under setting [2].

As for LRTIPSPYPASKADIPSVAFSSRL [DCAF4], the protein stability index is, setting by setting: under setting [1], 2.79 ± 0.34; under setting [2], 2.94 ± 0.35.

Turning to GNNEDVSFSRPADLDLIQSTPFKP [MFF], the protein stability index by setting is: under setting [1], 4.36 ± 0.059; under setting [2], 5.06 ± 0.56.

Turning to LVAPVLEPGKQERDVYLPAGKWRS [MYORG], the protein stability index worked out at 3.49 ± 0.16 under setting [1] and 3.75 ± 0.2 under setting [2].

LLQDKQFELALQLAEMKDDSDSEK [VPS39]: the protein stability index under setting [1] worked out at 5.19 ± 0.23 and the protein stability index under setting [2] was found to be 5.17 ± 0.26.

Consider FFVITMIKIVLINSFGAILQGSLF [SLC29A1], for which the protein stability index by setting is: under setting [1], 3.36 ± 0.093; under setting [2], 2.99 ± 0.12.

Take NSMAPHPARDYVVLRTWRTNLPKG [DLC1]: the protein stability index is, setting by setting: under setting [1], 2.48 ± 0.59; under setting [2], 2.64 ± 0.21.

Take MQPFNYVTLQCLAARALDKNKIPY [FEM1A]: the protein stability index under setting [1] is 3.25 ± 0.38 and the protein stability index under setting [2] came to 2.97 ± 0.31.

For the sequence YPCIPNHELVWAKMKGFGFWPAKV [ZMYND11], the protein stability index is, setting by setting: under setting [1], 3.09 ± 1.4; under setting [2], 2.19 ± 0.3.

Regarding ERMAEEGGGGQGDGGSSLASGSTQ [FBXO28], the protein stability index by setting is: under setting [1], 5.53 ± 0.35; under setting [2], 5.35 ± 0.33.

Turning to QSRGVPAVSESYSAPGACEEPTER [FBXO34], the protein stability index stood at 5.49 ± 0.18 under setting [1] and 5.49 ± 0.18 under setting [2].

As to GSEMGLSSHLQSSKAGPTRIFTSN [KLHL13], the protein stability index was 3.78 ± 0.17 under setting [1] and 3.77 ± 0.23 under setting [2].

For the sequence HRRDGKWQIVHFHRSGAPSVLPH [CAMK2A], the protein stability index runs as follows: under setting [3], 3.2 ± 0.21; under setting [4], 3.34 ± 0.24.

In the case of DKKVRTIIIRSEVPGIFCAGADLK [AUH], the protein stability index is, setting by setting: under setting [1], 2.12 ± 0.27; under setting [2], 2.11 ± 0.38.

Take PLMGETQERERVLTHFSRRYCQCN [PSD2]: the protein stability index is, setting by setting: under setting [1], 3.13 ± 0.38; under setting [2], 3.62 ± 0.25.

For EVRKLTQRLEEMTQRMEALENRLR [MATN2], the protein stability index is, setting by setting: under setting [1], 2.57 ± 0.39; under setting [2], 2.91 ± 0.4.

For MNGHQNGLDSPPLYPSAPILGGSG [ESRRG], the protein stability index runs as follows: under setting [1], 3.91 ± 0.25; under setting [2], 3.93 ± 0.3.

In the case of GGGMRVCGFGGGAGSVFGGGFGGG [KRT15], the protein stability index is 2.03 ± 0.33 under setting [1] and 1.94 ± 0.24 under setting [2].

RQRFRHLRYQETPGPREALSQLRV [ZNF232]: the protein stability index is, setting by setting: under setting [1], 3.13 ± 0.27; under setting [2], 3.39 ± 0.28.

For the sequence GSIGVWHYICPRLGGIGFSSCIVC [SLC6A17], the protein stability index was 2.58 ± 0.054 under setting [1] and 2.41 ± 1.2 under setting [2].

With IVGWRCRVGQWVRMENVTVLGEDV [GMPPB], the protein stability index amounted to 2.39 ± 0.61 under setting [1] and 2.15 ± 0.18 under setting [2].

Regarding MLEDGPHNANRGQRLLAFSRGRA [CCDC70], the protein stability index worked out at 2.99 ± 0.63 under setting [3] and 2.77 ± 0.41 under setting [4].

REIALAKKHGTQNKRAALQALKRK [CHMP4C]: the protein stability index amounted to 4.04 ± 0.14 under setting [1] and 4.29 ± 0.39 under setting [2].

Turning to LPILGHRDYKIQASRTWCFYNTED [PTGFR], the protein stability index under setting [1] is 2.41 ± 0.31 and the protein stability index under setting [2] stood at 2.53 ± 0.33.

For the sequence MQRPYDSRTCIGSSHSRGPLSWAP, the protein stability index came out at 3.1 ± 0.31 under setting [1] and 2.94 ± 0.05 under setting [2].

As for KNHEEEMKEFSNQVVGQVNVEMDA [KRT13], the protein stability index reads like this: under setting [1], 5.54 ± 0.079; under setting [2], 5.44 ± 0.31.

Take EQHGKKVPTVSRPYSFIEFDTFIQ [SEC22B]: the protein stability index worked out at 2.75 ± 0.28 under setting [1] and 2.95 ± 0.26 under setting [2].

Consider TCEDDEDEELGGSSRVPVGGGPEA [ZBTB22], for which the protein stability index runs as follows: under setting [1], 5.49 ± 0.14; under setting [2], 5.38 ± 0.61.

With AQLQALRQKEVDFCISLLRERFME [INTS3], the protein stability index by setting is: under setting [1], 2.61 ± 0.27; under setting [2], 2.58 ± 0.59.

For the sequence CQEEQLRSHENKLRQLTAELAEHR [PSD2], the protein stability index by setting is: under setting [1], 4.41 ± 0.25; under setting [2], 4.34 ± 0.16.

As to VYSWPKNKKNILLRLLREEEYVAP [TRAF3IP2], the protein stability index is 2.11 ± 0.68 under setting [1] and 2.5 ± 0.59 under setting [2].

With LPSRRDVYLSPRDDGYSTKDSYSS [RBMX], the protein stability index runs as follows: under setting [1], 4.11 ± 0.13; under setting [2], 3.99 ± 0.42.

Take STAHASAQSLAGGSRRTKEEELQC [TPD52L1]: the protein stability index was 5.16 ± 0.15 under setting [1] and 5.12 ± 0.23 under setting [2].

As to DLPKAKTRAADLLVNPLDPRNADK [SRPK2], the protein stability index runs as follows: under setting [1], 4.85 ± 0.24; under setting [2], 5 ± 0.29.

For the sequence GRSRLYHDGKNQPGVAYPAFLGPD [SPSB4], the protein stability index reads like this: under setting [1], 3.84 ± 0.23; under setting [2], 3.78 ± 0.19.

For the sequence PAPALAPDQLPQNNTLVALPIVAI [FBXO28], the protein stability index by setting is: under setting [1], 2.91 ± 0.23; under setting [2], 2.68 ± 0.33.

SDVNDNAPRFNQQLYTAYILENRP [PCDHGC5] registered a protein stability index under setting [1] of 2.87 ± 0.26 and a protein stability index under setting [2] of 3.1 ± 0.31.

For the sequence VSTKEQILDLLVLEQFLSILPKEL [ZSCAN9], the protein stability index is, setting by setting: under setting [1], 3.21 ± 0.93; under setting [2], 3.02 ± 0.65.

As to YSLQMKRVIACQKTAHDSNVLHVA [WDR41], the protein stability index is, setting by setting: under setting [1], 2.23 ± 0.14; under setting [2], 2.38 ± 0.32.

Regarding YMYLVIEELTREAVAVDVAVPKRL [HAGHL], the protein stability index was 2.57 ± 0.57 under setting [1] and 2.71 ± 0.41 under setting [2].

For SYQDWQQNLYFNCSSPGVQACSLP [TSPAN10], the protein stability index came out at 2.32 ± 0.28 under setting [1] and 2.62 ± 0.2 under setting [2].

On to NEFLEAFRLVEKSCPEGDASECPQ [PPEF2], for which the protein stability index reads like this: under setting [1], 5 ± 0.75; under setting [2], 5.17 ± 0.32.

FDQLKQFLTFDKQVLRFYAIWDDT [EFHC1]: the protein stability index is 2.31 ± 0.2 under setting [1] and 2.13 ± 0.33 under setting [2].

With KSKGYGFVSFFNKWDAENAIQQMG [TIA1], the protein stability index is 2.11 ± 0.76 under setting [1] and 1.59 ± 0.3 under setting [2].

As for EDMLLPLAWRIVNDTYRTDLCLLY [CCNC], the protein stability index reads like this: under setting [1], 2.76 ± 0.57; under setting [2], 2.59 ± 0.38.

Sequence PSRQYATLDVYNPFETREPPPAYE [SCAMP3] registered a protein stability index under setting [1] of 3.95 ± 0.27 and a protein stability index under setting [2] of 4.14 ± 0.21.

On to GSRAGASSFSDPFFVVETLCIIWF [KCNA3], for which the protein stability index was 3.04 ± 0.93 under setting [1] and 2.53 ± 0.75 under setting [2].

Turning to FLENLDKSRKGELLKKSDLQKDF [PRIM1], the protein stability index under setting [3] worked out at 4.7 ± 0.24 and the protein stability index under setting [4] is 5.154 ± 0.05.

With LRRFVVRTMCAVLGLVARQEDSGL [AUP1], the protein stability index is, setting by setting: under setting [1], 2.17 ± 0.71; under setting [2], 1.91 ± 0.095.

On to IPVLMALSWFILHARYRVIHFIAV [SLC35F2], for which the protein stability index under setting [1] came to 3.09 ± 0.43 and the protein stability index under setting [2] is 3.25 ± 0.093.

Take SSSSSSSSCYPLIPSTPEEVSADD [MAGEA10]: the protein stability index under setting [1] worked out at 5.46 ± 0.33 and the protein stability index under setting [2] was found to be 5.5 ± 0.14.

For EKLCIYTDNSIKPQELLEWELVVL [CCND2], the protein stability index is, setting by setting: under setting [1], 2.57 ± 0.58; under setting [2], 2.62 ± 0.6.

As for AFLGPDEAFALPDSLLVVLDMDEG [SPSB4], the protein stability index reads like this: under setting [1], 2.45 ± 0.39; under setting [2], 2.6 ± 0.38.

As to ARFVSSGSGGGYGGGMRVCGFGGG [KRT15], the protein stability index by setting is: under setting [1], 2.63 ± 0.31; under setting [2], 2.74 ± 0.25.

For the sequence DKDENKLSEASGGRAENGERSDLE [ZC3H15], the protein stability index under setting [1] stood at 5.45 ± 0.24 and the protein stability index under setting [2] was found to be 5.45 ± 0.28.

Regarding QAPISAPEYTYGISNIDTTIEGTS [MFF], the protein stability index amounted to 4.67 ± 0.42 under setting [1] and 4.55 ± 0.21 under setting [2].

For the sequence LMQLQDIQYLTENIWASQSVLSAC [IQUB], the protein stability index was 2.67 ± 0.42 under setting [1] and 2.24 ± 0.37 under setting [2].

Regarding PDFCHKFLPGYVGGIQEGAVTPAG [DHCR7], the protein stability index by setting is: under setting [1], 3.57 ± 0.32; under setting [2], 3.6 ± 0.11.

Take ATLKGPDSHYGTKGLKKVVHETPA [BTBD1]: the protein stability index is, setting by setting: under setting [1], 4.21 ± 0.34; under setting [2], 4.543 ± 0.04.

With QVKKTTTRWCHIVRDSDSLAESEF [PHTF1], the protein stability index worked out at 3.44 ± 0.36 under setting [1] and 3.67 ± 0.25 under setting [2].

For the sequence VCLMGHERRQTLNLISLLALRVLA [TENT5C], the protein stability index amounted to 2.72 ± 0.56 under setting [1] and 2.5 ± 0.37 under setting [2].

Turning to EAELRRRDTFYKEQLERIERKNAE [CHCHD6], the protein stability index runs as follows: under setting [1], 5.1 ± 0.41; under setting [2], 5.34 ± 0.28.

Consider KLWDLRTTKCVRQYEGHVNEYAYL [DCAF4], for which the protein stability index is, setting by setting: under setting [1], 2.38 ± 0.21; under setting [2], 2.27 ± 0.22.

Consider SVAEGYYSHRETVNGSWYIQDLCE [CASP6], for which the protein stability index came out at 3.23 ± 0.22 under setting [1] and 3.11 ± 0.35 under setting [2].

Take IALDLTPVIEELTNAGFLQTESEL [FAN1]: the protein stability index reads like this: under setting [1], 2.46 ± 0.26; under setting [2], 2.57 ± 0.37.

Regarding SLGALDLLGPATGCLLDDGLEGLF [SERTAD1], the protein stability index came to 2.6 ± 0.24 under setting [1] and 2.57 ± 0.32 under setting [2].

For the sequence YVLNLLYETKKHLVQLPNINRVST [PPEF2], the protein stability index reads like this: under setting [1], 2.49 ± 0.68; under setting [2], 2.59 ± 0.39.

Regarding TSFALERNLRTQQEIEDKMKGFSF [C8orf76], the protein stability index by setting is: under setting [1], 3.54 ± 0.19; under setting [2], 3.53 ± 0.2.

Consider AYFPYFKKHNVTAVVRLNKKIYEA [CDC14A], for which the protein stability index under setting [1] stood at 2.34 ± 0.33 and the protein stability index under setting [2] was 2.08 ± 0.16.

Consider LGGIGFSSCIVCLFVGLYYNVIIG [SLC6A17], for which the protein stability index under setting [2] was found to be 3.92 ± 0.088.

The sequence FAPQTGARPSETFARFCKSQESAL [DNAAF3] yielded a protein stability index under setting [1] of 2.5 ± 0.45 and a protein stability index under setting [2] of 2.76 ± 0.52.
